Measurements: doi:10.1101/439331
Where two headings read alike, the source gives them in different places. Each block holds one molecule with its values, some of them ahead of it.

What was measured:
[1] = molecular target: SCARECROW (SCR)-mCherry translational fusion (SCR:SCR-mCherry) (Arabidopsis) (UniProt Q9M384); test: Cross-Correlation Number and Brightness
[2] = molecular target: SCARECROW (SCR)-mCherry translational fusion (SCR:SCR-mCherry) (Arabidopsis) (UniProt Q9M384); test: Cross-Correlation Number and Brightness; remark: listed apart in the source
[3] = molecular target: SHORTROOT (SHR)-GFP translational fusion (SHR:SHR-GFP) (Arabidopsis) (UniProt Q9SZF7); test: Number and Brightness
[4] = molecular target: T1, SCARECROW (SCR)-GFP translational fusion (SCR:SCR-GFP) (Arabidopsis), Q9M384; test: Number and Brightness; conditions: remark: other sources report otherwise
T1 chain: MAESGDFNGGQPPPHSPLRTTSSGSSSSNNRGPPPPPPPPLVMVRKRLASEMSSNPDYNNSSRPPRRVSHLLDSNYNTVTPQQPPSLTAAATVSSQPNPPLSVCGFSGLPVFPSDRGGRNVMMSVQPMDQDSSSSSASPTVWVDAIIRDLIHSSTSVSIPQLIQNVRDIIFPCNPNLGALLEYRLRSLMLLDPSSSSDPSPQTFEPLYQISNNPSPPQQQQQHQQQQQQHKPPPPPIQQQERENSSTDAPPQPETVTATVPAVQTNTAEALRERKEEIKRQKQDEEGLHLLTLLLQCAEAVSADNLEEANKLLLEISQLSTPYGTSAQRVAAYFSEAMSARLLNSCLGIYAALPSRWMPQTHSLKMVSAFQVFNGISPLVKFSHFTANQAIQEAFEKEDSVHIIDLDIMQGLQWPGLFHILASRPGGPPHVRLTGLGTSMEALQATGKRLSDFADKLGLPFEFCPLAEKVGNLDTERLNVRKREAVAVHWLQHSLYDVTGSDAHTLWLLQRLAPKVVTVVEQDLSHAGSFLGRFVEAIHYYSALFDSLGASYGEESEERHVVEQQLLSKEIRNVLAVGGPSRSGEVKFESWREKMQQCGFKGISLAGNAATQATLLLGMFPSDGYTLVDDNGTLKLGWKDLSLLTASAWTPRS

[5] = molecular target: T1, SCARECROW (SCR)-GFP translational …; test: Number and Brightness; conditions: remark: other sources report otherwise

- binding score of the 2 SHR: 2 SCR complex [1]: 1
- percent of SHR-SCR complexes that are 1 SHR: 1 SCR [1]: > 90%
- percent of SHR-SCR complexes that are 1 SHR: 2 SCR [1]: < 5%
- percent of SHR-SCR complexes that are 2 SHR: 1 SCR [1]: 7%
- percent of SHR-SCR complexes that are 2 SHR: 2 SCR [1]: < 1%
- percent of SHR-SCR complexes that are 1 SHR: 1 SCR [2]: > 90%
- percent of SHR-SCR complexes that are 1 SHR: 2 SCR [2]: 7%
Molecule: SHORTROOT (SHR)-GFP translational fusion (SHR:SHR-GFP) (from UniProt Q9SZF7 1-531) (natural protein)

- percent homodimer without m4 (scr4 mutant) [3]: < 1%
B1: SHORTROOT (SHR)-GFP translational fusion (SHR:SHR-GFP) (natural protein)
chain: MDTLFRLVSLQQQQQSDSIITNQSSLSRTSTTTTGSPQTAYHYNFPQNDVVEECFNFFMDEEDLSSSSSHHNHHNHNNPNTYYSPFTTPTQYHPATSSTPSSTAAAAALASPYSSSGHHNDPSAFSIPQTPPSFDFSANAKWADSVLLEAARAFSDKDTARAQQILWTLNELSSPYGDTEQKLASYFLQALFNRMTGSGERCYRTMVTAAATEKTCSFESTRKTVLKFQEVSPWATFGHVAANGAILEAVDGEAKIHIVDISSTFCTQWPTLLEALATRSDDTPHLRLTTVVVANKFVNDQTASHRMMKEIGNRMEKFARLMGVPFKFNIIHHVGDLSEFDLNELDVKPDEVLAINCVGAMHGIASRGSPRDAVISSFRRLRPRIVTVVEEEADLVGEEEGGFDDEFLRGFGECLRWFRVCFESWEESFPRTSNERLMLERAAGRAIVDLVACEPSDSTERRETARKWSRRMRNSGFGAVGYSDEVADDVRALLRRYKEGVWSMVQCPDAAGIFLCWRDQPVVWASAWRPT

- percent homodimer [4]: 6.6%
- percent homodimer [5]: 17.3%
- stoichiometry N [5]: 2
B2: SCARECROW (SCR)-GFP translational fusion (SCR:SCR-GFP), Q9M384 1-653 (natural protein)
chain: MAESGDFNGGQPPPHSPLRTTSSGSSSSNNRGPPPPPPPPLVMVRKRLASEMSSNPDYNNSSRPPRRVSHLLDSNYNTVTPQQPPSLTAAATVSSQPNPPLSVCGFSGLPVFPSDRGGRNVMMSVQPMDQDSSSSSASPTVWVDAIIRDLIHSSTSVSIPQLIQNVRDIIFPCNPNLGALLEYRLRSLMLLDPSSSSDPSPQTFEPLYQISNNPSPPQQQQQHQQQQQQHKPPPPPIQQQERENSSTDAPPQPETVTATVPAVQTNTAEALRERKEEIKRQKQDEEGLHLLTLLLQCAEAVSADNLEEANKLLLEISQLSTPYGTSAQRVAAYFSEAMSARLLNSCLGIYAALPSRWMPQTHSLKMVSAFQVFNGISPLVKFSHFTANQAIQEAFEKEDSVHIIDLDIMQGLQWPGLFHILASRPGGPPHVRLTGLGTSMEALQATGKRLSDFADKLGLPFEFCPLAEKVGNLDTERLNVRKREAVAVHWLQHSLYDVTGSDAHTLWLLQRLAPKVVTVVEQDLSHAGSFLGRFVEAIHYYSALFDSLGASYGEESEERHVVEQQLLSKEIRNVLAVGGPSRSGEVKFESWREKMQQCGFKGISLAGNAATQATLLLGMFPSDGYTLVDDNGTLKLGWKDLSLLTASAWTPRS
